In patent publication US20200347144A1 (SHANGHAI HYAMAB BIOTECH, published 2020):

Experiments:
[1] = molecular target: T1, mouse 4-1BB protein (extracellular domain) (mouse, UniProt P20334 24-187); experiment: ELISA, coated mouse 4-1BB; Ab 2 ug/ml
T1 construct: extracellular domain; also called mouse 4-1BB-his; mouse 4-1BB-hFc protein
T1 sequence (looked up): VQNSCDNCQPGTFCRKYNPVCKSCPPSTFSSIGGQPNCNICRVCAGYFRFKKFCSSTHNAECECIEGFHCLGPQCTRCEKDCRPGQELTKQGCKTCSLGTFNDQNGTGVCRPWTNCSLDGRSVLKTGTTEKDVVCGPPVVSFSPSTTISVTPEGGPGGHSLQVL
Procedure: (§1) The purified immunogen A (4-1BB-hFc), monkey 4-1BB-his, and mouse 4-1BB-his obtained in Example 1 [for the preparation method, see step 1 of Example 1, preparation of immunogen A], of which the extracellular domain of monkey-derived 4-1BB protein (purchased from ACRO biosystems), the extracellular domain of mouse 4-1BB protein (purchased from sino biological) or other immune detection point proteins respectively were diluted with PBS to a final concentration of 1.0 μg/mL, then added with […] per well to 96-well ELISA plate. It was sealed with plastic film and incubated at 4° C. overnight. The next day, the plate was washed twice with the plate-washing solution [PBS containing 0.01% (v/v) Tween20] and blocking solution [PBS containing 0.01% (v/v) Tween 20 and 1% (v/v) BSA] was added and blocked at room temperature for 2 hours. The blocking solution was discarded and 100 μl of the purified 4-1BB antibody obtained in Example 2 was added per well. After incubated at 37° C. for 2 hours, the plate was washed 3 times with a plate-washing solution [PBS containing 0.01% (v/v) Tween20]. A secondary antibody (purchased from Sigma) labeled with HRP (horseradish peroxidase) was added, and after incubated at 37° C. for 2 hours, the plate was washed 3 times with a plate-washing solution [PBS containing 0.01% (v/v) Tween20]. 100 μl of TMB substrate was added per well. After incubated for 30 minutes at room temperature, 100 μl of stop buffer (1.0N HCl) was added per well. The A450 nm values were read using an ELISA plate reader (SpectraMax 384plus, Molecular Device).

[2] = molecular target: T2, human 4-1BB, full length, on transfected cells (human, UniProt Q07011 24-255); experiment: cell-based or functional assay
T2 sequence (Q07011 24-255): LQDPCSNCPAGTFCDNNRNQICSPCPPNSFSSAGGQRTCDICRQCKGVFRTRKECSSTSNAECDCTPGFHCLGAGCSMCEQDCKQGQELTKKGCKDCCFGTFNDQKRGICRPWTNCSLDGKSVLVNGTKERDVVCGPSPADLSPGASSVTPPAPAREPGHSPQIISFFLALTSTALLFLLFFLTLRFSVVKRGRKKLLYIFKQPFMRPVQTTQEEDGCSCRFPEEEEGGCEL

[3] = molecular target: T3, his-tagged human 4-1BB protein antigen (human, UniProt Q07011 24-186); experiment: SPR (Biacore T200), antibody captured on anti-human Fc, his-tagged human 4-1BB as analyte
T3 construct: not shown: his tag
Excerpt: The Biacore T200 instrument (purchased) was used to determine the affinity constant. The specific operation and method were based on the instrument manual and the detailed method provided by the manufacturer. Sensors labeled with anti-human Fc were combined with anti-4-1BB fully human antibodies to detect the binding and dissociation of five different gradients of his-tagged human 4-1BB protein antigen. Then software was used to fit the dissociation constant and the binding constant. The affinity constant is the ratio of the dissociation constant and the binding constant.

[4] = molecular target: T4, monkey 4-1BB-his protein (monkey); experiment: ELISA: monkey 4-1BB-his coated at 1.0 µg/mL, antibody titrated, HRP secondary antibody, OD450
T4 construct: extracellular domain; Bought protein; also called extracellular domain of monkey-derived 4-1BB protein
Procedure: as §1

[5] = molecular target: T2, human 4-1BB, full length, on …; experiment: FACS blocking assay on CHOK1-h4-1BB cells: antibody titrated against his-muCD8a-4-1BBL, bound ligand detected with Alexa 488 anti-mouse CD8a; inhibition rate (%) relative to human IgG
Procedure: It was washed three times with FACS buffer by centrifugation, and 100 μl of fixative [4% (v/v) paraformaldehyde] per well was added to suspend cells, and it was washed twice with FACS buffer by centrifugation after 10 minutes. The cells were suspended with 100 microliters of FACS buffer, and the results were detected and analyzed with FACS (FACS Calibur, purchased from BD). […] The IgG control is human IgG, and the data in the table is the inhibition rate of the ligand binding by the fully human 4-1BB antibody relative to the control group (human IgG).

Row | Binder | OD450 nm [1] [OD450 nm] | NFκB luciferase reporter, 4-1BB+ HEK293; EC50; cross-linked [2] [nM] | NFκB luciferase reporter, 4-1BB+ HEK293; fluorescence multiple vs human IgG; cross-linked; Ab 0.00013 ug/ml [2] [fold] | NFκB luciferase reporter, 4-1BB+ HEK293; fluorescence multiple vs human IgG; cross-linked; Ab 0.00064 ug/ml [2] [fold] | NFκB luciferase reporter, 4-1BB+ HEK293; fluorescence multiple vs human IgG; cross-linked; Ab 0.0032 ug/ml [2] [fold] | NFκB luciferase reporter, 4-1BB+ HEK293; fluorescence multiple vs human IgG; cross-linked; Ab 0.016 ug/ml [2] [fold] | NFκB luciferase reporter, 4-1BB+ HEK293; fluorescence multiple vs human IgG; cross-linked; Ab 0.08 ug/ml [2] [fold] | NFκB luciferase reporter, 4-1BB+ HEK293; fluorescence multiple vs human IgG; cross-linked; Ab 0.4 ug/ml [2] [fold] | NFκB luciferase reporter, 4-1BB+ HEK293; fluorescence multiple vs human IgG; cross-linked; Ab 2 ug/ml [2] [fold] | NFκB luciferase reporter, 4-1BB+ HEK293; fluorescence multiple vs human IgG; cross-linked; Ab 10 ug/ml [2] [fold] | NFκB luciferase reporter, 4-1BB+ HEK293; fluorescence multiple vs human IgG; non-cross-linked; Ab 0.00013 ug/ml [2] [fold] | NFκB luciferase reporter, 4-1BB+ HEK293; fluorescence multiple vs human IgG; non-cross-linked; Ab 0.00064 ug/ml [2] [fold] | NFκB luciferase reporter, 4-1BB+ HEK293; fluorescence multiple vs human IgG; non-cross-linked; Ab 0.0032 ug/ml [2] [fold] | NFκB luciferase reporter, 4-1BB+ HEK293; fluorescence multiple vs human IgG; non-cross-linked; Ab 0.016 ug/ml [2] [fold] | NFκB luciferase reporter, 4-1BB+ HEK293; fluorescence multiple vs human IgG; non-cross-linked; Ab 0.08 ug/ml [2] [fold] | NFκB luciferase reporter, 4-1BB+ HEK293; fluorescence multiple vs human IgG; non-cross-linked; Ab 0.4 ug/ml [2] [fold] | NFκB luciferase reporter, 4-1BB+ HEK293; fluorescence multiple vs human IgG; non-cross-linked; Ab 2 ug/ml [2] [fold] | NFκB luciferase reporter, 4-1BB+ HEK293; fluorescence multiple vs human IgG; non-cross-linked; Ab 10 ug/ml [2] [fold] | Kd [3] [nM] | EC50 (read off the curve) [4] [µg/mL] | other results
1 | 172E3E3 (antibody, V domains shown) VH: QVQLQESGPGLVKPSGTLSLTCAVSGGSISSSNWWSWVRQPPGKGLEWIGEIYHSGSTNYNPSLKSRVTISVDKSKNQLSLNLSSVTAADTAVYYCARQGGVAGTLYWYFDLWGRGTLVTVSS VL: DIVMTQSPLSLPVTPGEPASISCRSSQGLLHSNGYNYLDWYLQKPGQSPQLLIYLGSNRASGVPDRFIGSGSGTDFTLKIRRVEAEDVGVYYCMQVLQTPWTFGQGTKVEIK | 0.12 |  |  |  |  |  |  |  |  |  |  |  |  |  |  |  |  |  |  |  | 
2 | 57B3D10 (antibody, V domains shown, also called 4-1BB fully human antibody 57B3D10) VH: QVQLQESGPGLVKPSETLSLTCTVSGGSISSYYWSWIRQPPGKGLEWIGYIYYSGSTNYNPSLKSRVTISVDTSKSQFSLKLTSVTAADTAVYYCAKDSDYYGSGSYSYWYFDLWGRGTLVTVSS VL: EIVMTQSPATLSVSPGERATLSCRASQSVSSNLAWYQQKPGQAPRLLIYGASTRAPGIPARFSGSGSGTEFTLTISSLQSEDFAVYYCQQYNNWPLTFGGGTKVEIK | 0.1 | 0.94 | 0.9 | 1.15 | 1.1 | 2.35 | 3.3 | 3.6 | 5.55 | 4.3 | 0.95 | 0.9 | 1.4 | 1.4 | 2.7 | 3.5 | 5 | 7.5 | 21.5 | ~0.03 | koff [3]: 0.0124 s⁻¹; kon [3]: 574000 M⁻¹ s⁻¹; IC50 (read off the curve) [5]: ~2 µg/mL
3 | 118F3A2 (antibody, V domains shown) VH: QVQLQQWGAGLLKPSETLSLTCGVYGGSFSTNYWSWIRQSPGKGLEWIGEINHSGNTEYNPSLKSRLTISIDTSKNQFSLKLTSVTAADTAVYYCARMGYHSPSFDFWGQGVLVTVSS VL: KIVMTQSPATLSVSPGERATLPCRVSQGIGSNLAWYQQKPGQAPRLLIYGASTRATGVPARFSGSGSGSEFTLTISSLQSEDLALYYCQQYNNWPLTFGGGTKVEIK | 0.12 |  |  |  |  |  |  |  |  |  |  |  |  |  |  |  |  |  |  |  | 
4 | 170D7F2 (antibody, V domains shown) VH: QVQLVQSGAEVKKPGASVKVSCKASGYTFTSYDINWVRQATGQGLEWMGWMNPNSGNTGYAQKFQGRVTMTRNTSISTAYMELSSLRSEDTAVYYCARETGPFDYWGQGTLVTVSS VL: DIQMTQSPSSLSASVGDRVTITCRASQRINNYLNWYQQKPGKAPKLLIYGASSLQSGVPSRFSGSGSGTDFTLTISSLQPEDFATYYCQQSYSTPFTFGPGTKVDIK | 0.11 |  |  |  |  |  |  |  |  |  |  |  |  |  |  |  |  |  |  |  | 
5 | 113F6C6 (antibody, V domains shown, also called 4-1BB fully human antibody 113F6C6; 113F6F6) VH: QVQLVESGGGVVQPGRSLRLSCAASGLTFSSYGMHWVRQAPGKGLEWVAVIWYDGSNKYYADSVKGRFTISRDNSKNTLYLQMNSLRAEDTAVYYCAREEVLWFGELSYNYYYGMDVWGQGTTVTVSS VL: DIQMTQSPSSLSASVGDRVTITCRASQGISNYLAWYQQKPGKVPKLLIYAASTLQSGVPSRFSGSGSGTDFTLTISSLQPEDVATYYCQKYNSVPLTFGGGTKVEIK | 0.18 | 0.41 | 0.7 | 1.3 | 2.15 | 6.55 | 14.6 | 14.8 | 17.1 | 13.6 | 1.25 | 0.95 | 1.3 | 4.35 | 12.7 | 12.1 | 23 | 22.1 | 17.6 | ~0.05 | NFκB luciferase reporter, 4-1BB+ HEK293; EC50; non-cross-linked [2]: 3.46 nM; koff [3]: 0.03 s⁻¹; kon [3]: 1.68e+06 M⁻¹ s⁻¹
6 | 119B6G5 (antibody, V domains shown) VH: EVQLLESGGGLVQPGGSLRLSCAASGFTFSNYAMSWVRQGPGKGLEWVSTIIGSGDSTYYTDSVKGRFTISRDNSKNTLFLQMNSLRAEDTAVYYCARDKSGWYYFDYWGQGTLVTVSS VL: DIQMTQSPSTLSASVGDRVTITCRASQSISNWLAWYQQKPGKAPKLLIYKASSLESGVPSRFSGSGSGTEFTLTISSLQPDDFATYYCQQYNDYFPITFGQGTRLEIK |  |  |  |  |  |  |  |  |  |  |  |  |  |  |  |  |  |  |  | ~0.03 | 
